Target: ICAM-1D1D5-Fc::PFD1235w head structure complex (human | Plasmodium falciparum)
Assay: SPR; Biacore T-200; dual binding: ICAM-1D1D5 Fc immobilized (1,800, 2,100 or 1,500 RU) on Protein A CM5 chip, head structure injected at 250 nM for 240 s, then EPCR injected, two-fold dilutions 250 nM to 16 nM, 30 µL/min, 240 s association, 720 s dissociation; 10 mM HEPES pH 8.0, 300 mM NaCl, 0.05% Tween-20; one-site kinetic model

B1: Recombinant His-tagged EPCR (receptor)
chain: SQDASDGLQRLHMLQISYFRDPYHVWYQGNASLGGHLTHVLEGPDTNTTIIQLQPLQEPESWARTQSGLQSYLLQFHGLVRLVHQERTLAFPLTIRCFLGCELPPEGSRAHVFFEVAVNGSSFVSFRPERALWQADTQVTSGVVTFTLQQLNAYNRTRYELREFLEDTCVQYVQKHISAENTKGSQTSRSYTSLVLGVLVGSFIIAGVAVGIFLCTGGRRC
modifications: biotin (biotinylated by BirA)
Question: Which results are given for B1?
Answer: Kd: 271 nM; koff: 0.00103 s⁻¹; kon: 3600 M⁻¹ s⁻¹

From publication PMC5374107
